Biological target: T1, interaction between FVIII light chain and LRP (Homo sapiens, UniProt P00451)
T1 construct: from tissue; host or cells: FVIII light chain from plasma; LRP from placenta
T1 sequence (P00451 1668-2351 limits assumed): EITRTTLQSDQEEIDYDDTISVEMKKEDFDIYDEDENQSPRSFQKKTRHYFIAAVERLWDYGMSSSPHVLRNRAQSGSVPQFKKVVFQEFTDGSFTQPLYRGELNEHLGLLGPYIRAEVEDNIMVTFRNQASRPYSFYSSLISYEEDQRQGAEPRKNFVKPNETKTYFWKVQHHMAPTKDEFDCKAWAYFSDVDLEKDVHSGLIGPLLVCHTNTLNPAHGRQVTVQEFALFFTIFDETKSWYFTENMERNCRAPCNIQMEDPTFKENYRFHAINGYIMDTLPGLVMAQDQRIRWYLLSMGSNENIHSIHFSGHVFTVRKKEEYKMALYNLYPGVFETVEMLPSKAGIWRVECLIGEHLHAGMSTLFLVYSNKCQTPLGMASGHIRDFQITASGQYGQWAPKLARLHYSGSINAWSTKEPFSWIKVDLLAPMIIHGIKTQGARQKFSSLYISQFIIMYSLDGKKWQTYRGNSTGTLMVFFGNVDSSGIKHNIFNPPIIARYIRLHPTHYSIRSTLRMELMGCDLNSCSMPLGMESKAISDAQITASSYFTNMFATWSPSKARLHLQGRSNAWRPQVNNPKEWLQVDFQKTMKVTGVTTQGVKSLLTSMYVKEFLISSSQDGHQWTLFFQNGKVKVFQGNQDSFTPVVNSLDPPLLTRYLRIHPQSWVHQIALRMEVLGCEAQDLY
Experiment: SPR competition: FVIII light chain binding to immobilized LRP
Settings: FVIII light chain 50 nM; scFv 20-500 nM
Protocol: FIG. 4. Effect of scFv antibody fragments on the interaction between FVIII light chain and LRP. A, FVIII light chain (LCh) (25 nM) was incubated with immobilized LRP cluster II (1 pmol/well) in a volume of 50 μl in 150 mM NaCl, 5 mM CaCl2, 1% (w/v) HSA, 0.1% Tween® 20, and 50 mM Tris (pH 7.4) in the presence of various concentrations (0-100 nM) of scFv KM41 (closed circles) or scFv KM36 (open circles) for 2 h at 37° C. After washing with the same buffer, bound FVIII light chain was quantified by incubation with peroxidase-conjugated anti-FVIII antibody CLB-CAg 12 for 15 min at 37° C. Residual binding is expressed as the percentage of binding in the absence of competitor and is corrected for nonspecific binding (less than 5% relative to binding to LRP cluster II-immobilized wells). […] Binding was assessed in the absence (curve 1) or in the presence of increasing concentrations of scFv KM41 (20, 60, 300, 500 nM, curves 2-5, respectively). […]
The kinetics of protein interactions was determined by surface plasmon resonance (SPR) analysis, employing a BIAcore™2000 biosensor system (Biacore AS, Uppsala, Sweden). […] Association of analyte was assessed in 150 mM NaCl, 2 mM CaCl2, 0.005% (v/v) Tween® 20, and 20 mM Hepes (pH 7.4) for 2 min, at a flow rate of 20 μl/min at 25° C. […] Equilibrium dissociation constants (kd) were calculated from the ratio koff/kon. […]

Effect on association of FVIII light chain with immobilized LRP: only partially inhibits
B1: scFv KM41: scFv antibody fragment directed against FVIII region Arg^1803-Lys^1818 (protein)
scFv: QVQLLQSAADVKKPGASVKVSCTASGYIFTSYDIDWVRQATGQGLEWMGWMNPNSGNAGFAQKFKGRLTLTRDTSTSTAYMELRRLESEDTAVYYCARSTPHSYSGSGLPPTSDSWGQGTLVTVSSGGGGSGGGGSGGGGSEIVLTQSPGTLSLSPGERATLSCRASQSVSSSFLGWYQQKPGQAPRLLIYGASSRATGIPDRFSGSGSGTDFTLTISRLEPEDFAVYYCQQYGISPLTFGGGTKLEIKRAAAEQKLISEEDLNGAAHHHHHH

Reference: US8586538B2, “Method of treating a patient suffering from a bleeding disorder comprising administering an antibody against the A3-C1 of FVIII” (Stichting Sanquin Bloedvoorziening, priority 2002, dated 2013)
